This passage reports Kd results from PMC4198471 (Biochimica et biophysica acta, 2014).

For the assay, the target named is T1, Trx-RhopH3-C (P. falciparum RhopH3 amino acids 620-897 with Trx and His tags) (Plasmodium falciparum, UniProt Q8I395 620-897).
T1 sequence: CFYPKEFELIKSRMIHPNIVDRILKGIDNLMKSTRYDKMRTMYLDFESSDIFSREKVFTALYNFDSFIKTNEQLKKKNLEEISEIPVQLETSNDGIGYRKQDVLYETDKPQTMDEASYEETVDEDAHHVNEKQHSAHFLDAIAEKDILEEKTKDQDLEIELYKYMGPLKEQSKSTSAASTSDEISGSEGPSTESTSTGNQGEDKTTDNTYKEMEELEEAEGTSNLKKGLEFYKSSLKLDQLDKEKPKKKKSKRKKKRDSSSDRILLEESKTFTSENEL
Kind of assay: ELISA. A general note: An ELISA detects its analyte on a solid surface through an enzyme-linked reagent.

As to GMPWLSATTVRSVTHANALTVMGKASTPGAAAQIQEVKEQRI (domain or fragment, UniProt P02730 720-761, looked up) [GST-5ABC (5ABC region of human erythrocyte band 3, amino acids 720-761, as GST fusion protein)], the Kd amounted to 183 ± 0.111 nM.

As usually defined, the Kd is a measure of binding affinity in units of concentration.
